Laboratory results from article PMC4352895 (2015).
Ends that are not written are not given here. Me3 = trimethyl-lysine; Me2 = dimethyl-lysine

B1: H3K27me2 (peptide)
chain: QLATKAARKSAPATG
modifications: dimethyl-Lys27 (mature numbering; K28 of precursor). Taken as the H3K27me2 peptide of the Figure 5C table; limits are mature 19-33 by convention for Eed binding peptides, not given

target: ΔEed (Eed residues 77 to 441) (UniProt O75530 77-441); test: ITC
Sequence (O75530 77-441, stated change not applied): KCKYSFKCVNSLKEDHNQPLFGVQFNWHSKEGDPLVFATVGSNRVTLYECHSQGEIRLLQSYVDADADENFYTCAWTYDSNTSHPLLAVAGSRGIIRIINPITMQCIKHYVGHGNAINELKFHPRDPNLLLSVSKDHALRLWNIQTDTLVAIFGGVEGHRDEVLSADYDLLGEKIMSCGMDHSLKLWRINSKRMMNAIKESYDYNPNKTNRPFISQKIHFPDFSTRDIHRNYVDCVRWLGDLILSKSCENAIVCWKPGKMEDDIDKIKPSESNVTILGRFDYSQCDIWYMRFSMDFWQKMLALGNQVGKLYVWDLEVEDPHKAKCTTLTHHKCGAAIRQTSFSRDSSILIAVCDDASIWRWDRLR

Q: For QLATKAARKSAPATG (trimethyl-lysine at K27) [H3K27me3 peptide], which Kd is on record?
A: The Kd was 36.4 µM.

Q: With B1 as the binder, how does the Kd read?
A: Its Kd is 68 µM.

Q: RLQAQRK(Me3)FAQSQY [Jarid2-K116me3 peptide] was tested. Which Kd did it give?
A: Its Kd is 3.4 µM.

Q: Which Kd does the source give for RLQAQRK(Me2)FAQSQY [Jarid2-K116me2 peptide] here?
A: Its Kd is 10.4 µM.
